Reference: publication PMC8856733

Legend:
Assay in all cases: SEC
[1] = biological target: human glycyl-tRNA synthetase (GlyRS) C157R, CMT mutant (human)
[2] = biological target: human glycyl-tRNA synthetase (GlyRS) E71G, CMT mutant (human)
[3] = biological target: human glycyl-tRNA synthetase (GlyRS) E279D, CMT mutant (human)
[4] = biological target: human glycyl-tRNA synthetase (GlyRS) G240R, CMT mutant (human)
[5] = biological target: human glycyl-tRNA synthetase (GlyRS) G526R, CMT mutant (human)
[6] = biological target: human glycyl-tRNA synthetase (GlyRS) L129P, CMT mutant (human)
[7] = biological target: human glycyl-tRNA synthetase (GlyRS), wild type (human)

## human glycyl-tRNA synthetase (GlyRS) C157R, CMT mutant (enzyme)
[1]
  stoichiometry N: 2

## human glycyl-tRNA synthetase (GlyRS) E71G, CMT mutant (enzyme)
[2]
  stoichiometry N: 2

## human glycyl-tRNA synthetase (GlyRS) E279D, CMT mutant (enzyme)
[3]
  stoichiometry N: 2

## human glycyl-tRNA synthetase (GlyRS) G240R, CMT mutant (enzyme)
[4]
  stoichiometry N: 2

## human glycyl-tRNA synthetase (GlyRS) G526R, CMT mutant (enzyme)
[5]
  stoichiometry N: 2

## human glycyl-tRNA synthetase (GlyRS) L129P, CMT mutant (enzyme)
[6]
  stoichiometry N: 2

## human glycyl-tRNA synthetase (GlyRS), wild type (enzyme)
[7]
  stoichiometry N: 2
